Laboratory results from the supplement of paper PMC5998384.

Columns and labels:
HeLa Kyoto [1] = assay: solubility in G1/S (NP-40 vs SDS abundance) (log2 ratio); higher = more soluble; settings: cell cycle stage: G1/S
HeLa Kyoto [2] = assay: solubility change mitosis vs G1/S (difference of NP-40 vs SDS log2 ratios) (log2 ratio difference); higher = more soluble in mitosis
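For solubility change mitosis vs G1/S (difference of NP-40 vs SDS log2 ratios) in this document: synchronized HeLa Kyoto cells (double thymidine block for G1/S, nocodazole release for mitosis), protein amounts in NP-40 versus SDS lysates quantified by mass spectrometry, three biological replicates.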
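For solubility in G1/S (NP-40 vs SDS abundance) in this document: HeLa Kyoto cells arrested at G1/S by double thymidine block, proteins quantified by TMT10plex mass spectrometry in mild NP-40 versus SDS extracts, three biological replicates.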

MAAAAEERMAEEGGGGQGDGGSSLASGSTQRQPPPPAPQHPQPGSQALPAPALAPDQLPQNNTLVALPIVAIENILSFMSYDEISQLRLVCKRMDLVCQRMLNQGFLKVERYHNLCQKQVKAQLPRRESERRNHSLARHADILAAVETRLSLLNMTFMKYVDSNLCCFIPGKVIDEIYRVLRYVNSTRAPQRAHEVLQELRDISSMAMEYFDEKIVPILKRKLPGSDVSGRLMGSPPVPGPSAALTTMQLFSKQNPSRQEVTKLQQQVKTNGAGVTVLRREISELRTKVQEQQKQLQDQDQKLLEQTQIIGEQNARLAELERKLREVMESAVGNSSGSGQNEESPRKRKKATEAIDSLRKSKRLRNRK [FBXO28]
solubility in G1/S (log2) (HeLa Kyoto [1]): 0.375
solubility change mitosis (log2) (HeLa Kyoto [2]): 0.262

MQIIRHSEQTLKTALISKNPVLVSQYEKLNAGEQRLMNEAFQPASDLFGPITLHSPSDWITSHPEAPQDFEQFFSDPYRKTPSPNKRSIYIQSIGSLGNTRIISEEYIKWLTGYCKAYFYGLRVKLLEPVPVSVTRCSFRVNENTHNLQIHAGDILKFLKKKKPEDAFCVVGITMIDLYPRDSWNFVFGQASLTDGVGIFSFARYGSDFYSMHYKGKVKKLKKTSSSDYSIFDNYYIPEITSVLLLRSCKTLTHEIGHIFGLRHCQWLACLMQGSNHLEEADRRPLNLCPICLHKLQCAVGFSIVERYKALVRWIDDESSDTPGATPEHSHEDNGNLPKPVEAFKEWKEWIIKCLAVLQK [AMZ2]
solubility in G1/S (log2) (HeLa Kyoto [1]): 0.00677
solubility change mitosis (log2) (HeLa Kyoto [2]): -0.0784

MEAPPVTMMPVTGGTINMMEYLLQGSVLDHSLESLIHRLRGLCDNMEPETFLDHEMVFLLKGQQASPFVLRARRSMDRAGAPWHLRYLGQPEMGDKNRHALVRNCVDIATSENLTDFLMEMGFRMDHEFVAKGHLFRKGIMKIMVYKIFRILVPGNTDSTEALSLSYLVELSVVAPAGQDMVSDDMKNFAEQLKPLVHLEKIDPKRLM [MED18]
solubility in G1/S (log2) (HeLa Kyoto [1]): 0.212
solubility change mitosis (log2) (HeLa Kyoto [2]): -0.161

MWTADEIAQLCYEHYGIRLPKKGKPEPNHEWTLLAAVVKIQSPADKACDTPDKPVQVTKEVVSMGTGTKCIGQSKMRKNGDILNDSHAEVIARRSFQRYLLHQLQLAATLKEDSIFVPGTQKGVWKLRRDLIFVFFSSHTPCGDASIIPMLEFEDQPCCPVFRNWAHNSSVEASSNLEAPGNERKCEDPDSPVTKKMRLEPGTAAREVTNGAAHHQSFGKQKSGPISPGIHSCDLTVEGLATVTRIAPGSAKVIDVYRTGAKCVPGEAGDSGKPGAAFHQVGLLRVKPGRGDRTRSMSCSDKMARWNVLGCQGALLMHLLEEPIYLSAVVIGKCPYSQEAMQRALIGRCQNVSALPKGFGVQELKILQSDLLFEQSRSAVQAKRADSPGRLVPCGAAISWSAVPEQPLDVTANGFPQGTTKKTIGSLQARSQISKVELFRSFQKLLSRIARDKWPHSLRVQKLDTYQEYKEAASSYQEAWSTLRKQVFGSWIRNPPDYHQFK [ADAT1]
solubility in G1/S (log2) (HeLa Kyoto [1]): 0.316
solubility change mitosis (log2) (HeLa Kyoto [2]): -0.0783

MVARRRKCAARDPEDRIPSPLGYAAIPIKFSEKQQASHYLYVRAHGVRQGTKSTWPQKRTLFVLNVPPYCTEESLSRLLSTCGLVQSVELQEKPDLAESPKESRSKFFHPKPVPGFQVAYVVFQKPSGVSAALALKGPLLVSTESHPVKSGIHKWISDYADSVPDPEALRVEVDTFMEAYDQKIAEEEAKAKEEEGVPDEEGWVKVTRRGRRPVLPRTEAASLRVLERERRKRSRKELLNFYAWQHRESKMEHLAQLRKKFEEDKQRIELLRAQRKFRPY [RRP7A]
solubility in G1/S (log2) (HeLa Kyoto [1]): -1.58
solubility change mitosis (log2) (HeLa Kyoto [2]): 1.02

MVHAFLIHTLRAPNTEDTGLCRVLYSCVFGAEKSPDDPRPHGAERDRLLRKEQILAVARQVESMCRLQQQASGRPPMDLQPQSSDEQVPLHEAPRGAFRLAAENPFQEPRTVVWLGVLSLGFALVLDAHENLLLAEGTLRLLTRLLLDHLRLLAPSTSLLLRADRIEGILTRFLPHGQLLFLNDQFVQGLEKEFSAAWPR [AP5S1]
solubility in G1/S (log2) (HeLa Kyoto [1]): -0.269
solubility change mitosis (log2) (HeLa Kyoto [2]): -0.153

MELLCCEGTRHAPRAGPDPRLLGDQRVLQSLLRLEERYVPRASYFQCVQREIKPHMRKMLAYWMLEVCEEQRCEEEVFPLAMNYLDRYLSCVPTRKAQLQLLGAVCMLLASKLRETTPLTIEKLCIYTDHAVSPRQLRDWEVLVLGKLKWDLAAVIAHDFLAFILHRLSLPRDRQALVKKHAQTFLALCATDYTFAMYPPSMIATGSIGAAVQGLGACSMSGDELTELLAGITGTEVDCLRACQEQIEAALRESLREASQTSSSPAPKAPRGSSSQGPSQTSTPTDVTAIHL [CCND3]
solubility in G1/S (log2) (HeLa Kyoto [1]): 0.226
solubility change mitosis (log2) (HeLa Kyoto [2]): -0.386

MTYAYLFKYIIIGDTGVGKSCLLLQFTDKRFQPVHDLTIGVEFGARMVNIDGKQIKLQIWDTAGQESFRSITRSYYRGAAGALLVYDITRRETFNHLTSWLEDARQHSSSNMVIMLIGNKSDLESRRDVKREEGEAFAREHGLIFMETSAKTACNVEEAFINTAKEIYRKIQQGLFDVHNEANGIKIGPQQSISTSVGPSASQRNSRDIGSNSGCC [RAB2B]
solubility in G1/S (log2) (HeLa Kyoto [1]): -0.221
solubility change mitosis (log2) (HeLa Kyoto [2]): -0.115

MIRDLSKMYPQTRHPAPHQPAQPFKFTISESCDRIKEEFQFLQAQYHSLKLECEKLASEKTEMQRHYVMYYEMSYGLNIEMHKQAEIVKRLNAICAQVIPFLSQEHQQQVVQAVERAKQVTMAELNAIIGQQLQAQHLSHGHGLPVPLTPHPSGLQPPAIPPIGSSAGLLALSSALGGQSHLPIKDEKKHHDNDHQRDRDSIKSSSVSPSASFRGAEKHRNSADYSSESKKQKTEEKEIAARYDSDGEKSDDNLVVDVSNEDPSSPRGSPAHSPRENGLDKTRLLKKDAPISPASIASSSSTPSSKSKELSLNEKSTTPVSKSNTPTPRTDAPTPGSNSTPGLRPVPGKPPGVDPLASSLRTPMAVPCPYPTPFGIVPHAGMNGELTSPGAAYAGLHNISPQMSAAAAAAAAAAAYGRSPVVGFDPHHHMRVPAIPPNLTGIPGGKPAYSFHVSADGQMQPVPFPPDALIGPGIPRHARQINTLNHGEVVCAVTISNPTRHVYTGGKGCVKVWDISHPGNKSPVSQLDCLNRDNYIRSCRLLPDGRTLIVGGEASTLSIWDLAAPTPRIKAELTSSAPACYALAISPDSKVCFSCCSDGNIAVWDLHNQTLVRQFQGHTDGASCIDISNDGTKLWTGGLDNTVRSWDLREGRQLQQHDFTSQIFSLGYCPTGEWLAVGMENSNVEVLHVTKPDKYQLHLHESCVLSLKFAHCGKWFVSTGKDNLLNAWRTPYGASIFQSKESSSVLSCDISVDDKYIVTGSGDKKATVYEVIY [TLE4]
solubility in G1/S (log2) (HeLa Kyoto [1]): -0.00686
solubility change mitosis (log2) (HeLa Kyoto [2]): -0.13

MKQLPAATVRLLSSSQIITSVVSVVKELIENSLDAGATSVDVKLENYGFDKIEVRDNGEGIKAVDAPVMAMKYYTSKINSHEDLENLTTYGFRGEALGSICCIAEVLITTRTAADNFSTQYVLDGSGHILSQKPSHLGQGTTVTALRLFKNLPVRKQFYSTAKKCKDEIKKIQDLLMSFGILKPDLRIVFVHNKAVIWQKSRVSDHKMALMSVLGTAVMNNMESFQYHSEESQIYLSGFLPKCDADHSFTSLSTPERSFIFINSRPVHQKDILKLIRHHYNLKCLKESTRLYPVFFLKIDVPTADVDVNLTPDKSQVLLQNKESVLIALENLMTTCYGPLPSTNSYENNKTDVSAADIVLSKTAETDVLFNKVESSGKNYSNVDTSVIPFQNDMHNDESGKNTDDCLNHQISIGDFGYGHCSSEISNIDKNTKNAFQDISMSNVSWENSQTEYSKTCFISSVKHTQSENGNKDHIDESGENEEEAGLENSSEISADEWSRGNILKNSVGENIEPVKILVPEKSLPCKVSNNNYPIPEQMNLNEDSCNKKSNVIDNKSGKVTAYDLLSNRVIKKPMSASALFVQDHRPQFLIENPKTSLEDATLQIEELWKTLSEEEKLKYEEKATKDLERYNSQMKRAIEQESQMSLKDGRKKIKPTSAWNLAQKHKLKTSLSNQPKLDELLQSQIEKRRSQNIKMVQIPFSMKNLKINFKKQNKVDLEEKDEPCLIHNLRFPDAWLMTSKTEVMLLNPYRVEEALLFKRLLENHKLPAEPLEKPIMLTESLFNGSHYLDVLYKMTADDQRYSGSTYLSDPRLTANGFKIKLIPGVSITENYLEIEGMANCLPFYGVADLKEILNAILNRNAKEVYECRPRKVISYLEGEAVRLSRQLPMYLSKEDIQDIIYRMKHQFGNEIKECVHGRPFFHHLTYLPETT [PMS1]
solubility in G1/S (log2) (HeLa Kyoto [1]): -0.0908
solubility change mitosis (log2) (HeLa Kyoto [2]): -0.108

MEGLGRSCLWLRRELSPPRPRLLLLDCRSRELYESARIGGALSVALPALLLRRLRRGSLSVRALLPGPPLQPPPPAPVLLYDQGGGRRRRGEAEAEAEEWEAESVLGTLLQKLREEGYLAYYLQGGFSRFQAECPHLCETSLAGRAGSSMAPVPGPVPVVGLGSLCLGSDCSDAESEADRDSMSCGLDSEGATPPPVGLRASFPVQILPNLYLGSARDSANLESLAKLGIRYILNVTPNLPNFFEKNGDFHYKQIPISDHWSQNLSRFFPEAIEFIDEALSQNCGVLVHCLAGVSRSVTVTVAYLMQKLHLSLNDAYDLVKRKKSNISPNFNFMGQLLDFERSLRLEERHSQEQGSGGQASAASNPPSFFTTPTSDGAFELAPT [DUSP9]
solubility in G1/S (log2) (HeLa Kyoto [1]): 0.279
solubility change mitosis (log2) (HeLa Kyoto [2]): -0.104

MGLKAAQKTLFPLRSIDDVVRLFAAELGREEPDLVLLSLVLGFVEHFLAVNRVIPTNVPELTFQPSPAPDPPGGLTYFPVADLSIIAALYARFTAQIRGAVDLSLYPREGGVSSRELVKKVSDVIWNSLSRSYFKDRAHIQSLFSFITGTKLDSSGVAFAVVGACQALGLRDVHLALSEDHAWVVFGPNGEQTAEVTWHGKGNEDRRGQTVNAGVAERSWLYLKGSYMRCDRKMEVAFMVCAINPSIDLHTDSLELLQLQQKLLWLLYDLGHLERYPMALGNLADLEELEPTPGRPDPLTLYHKGIASAKTYYRDEHIYPYMYLAGYHCRNRNVREALQAWADTATVIQDYNYCREDEEIYKEFFEVANDVIPNLLKEAASLLEAGEERPGEQSQGTQSQGSALQDPECFAHLLRFYDGICKWEEGSPTPVLHVGWATFLVQSLGRFEGQVRQKVRIVSREAEAAEAEEPWGEEAREGRRRGPRRESKPEEPPPPKKPALDKGLGTGQGAVSGPPRKPPGTVAGTARGPEGGSTAQVPAPTASPPPEGPVLTFQSEKMKGMKELLVATKINSSAIKLQLTAQSQVQMKKQKVSTPSDYTLSFLKRQRKGL [MEN1]
solubility in G1/S (log2) (HeLa Kyoto [1]): -0.472
solubility change mitosis (log2) (HeLa Kyoto [2]): 0.197

MMADEEEEVKPILQKLQELVDQLYSFRDCYFETHSVEDAGRKQQDVQKEMEKTLQQMEEVVGSVQGKAQVLMLTGKALNVTPDYSPKAEELLSKAVKLEPELVEAWNQLGEVYWKKGDVAAAHTCFSGALTHCRNKVSLQNLSMVLRQLRTDTEDEHSHHVMDSVRQAKLAVQMDVHDGRSWYILGNSYLSLYFSTGQNPKISQQALSAYAQAEKVDRKASSNPDLHLNRATLHKYEESYGEALEGFSRAAALDPAWPEPRQREQQLLEFLDRLTSLLESKGKVKTKKLQSMLGSLRPAHLGPCSDGHYQSASGQKVTLELKPLSTLQPGVNSGAVILGKVVFSLTTEEKVPFTFGLVDSDGPCYAVMVYNIVQSWGVLIGDSVAIPEPNLRLHRIQHKGKDYSFSSVRVETPLLLVVNGKPQGSSSQAVATVASRPQCE [TTC5]
solubility in G1/S (log2) (HeLa Kyoto [1]): 0.132
solubility change mitosis (log2) (HeLa Kyoto [2]): 0.145
